Experimental data published in the DeepSol protein solubility set.

assay: soluble on expression in E. coli; label from the status in PepcDB or PDB records

Soluble on expression in E. coli, soluble:
SLIENSHVKKDDIWPSGGQMTVKDLTAKYTEGGNAILENISFSISPGQRVGLLGRTGSGKSTLLSAFLRLLNTEGEIQIDGVSWDSITLQQWRKAFGVIPQKVFIFSGTFRKNLDPYEQWSDQEIWKVADEVGLRSVIEQFPGKLDFVLVDGGCVLSHGHKQLMCLARSVLSKAKILLLDQPSAHLDPVTYQIIRRTLKQAFADCTVILCEHRIEAMLECQQFLVIEENKVRQYDSIQKLLNERSLFRQAISPSDRVKLFPHRNSSKCKSKPQIAALKEETEEEVQDTRLENLYFQGDKDCEMKRTTLDSPLGKLELSGCEQGLHEIKLLGKGTSAADAVEVPAPAAVLGGPEPLMQATAWLNAYFHQPEAIEEFPVPALHHPVFQQESFTRQVLWKLLKVVKFGEVISYQQLAALAGNPAATAAVKTALSGNPVPILIPCHRVVSSSGAVGGYEGGLAVKEWLLAHEGHRLGKPGLG
MVLFSEDHIQETRRRGRIEVICGSMFSGKTEELIRRMKRAKFARQRVEIFKPAIDTRYSEEDVVSHDSHSIASTPIDSSASILLFTSEIDVVGIDEAQFFDDGLIDVCRQLANNGIRVIIAGLDMDFKGNPFGPMPQLCAIADEVSKVHAICVKCGDLASFSHRTVKNDKQVLLGETAEYEPLCRECYLRARGEDGQKILEHHHHHH
MSLIESVMTVLVTRPDEQGAELCQLLHQQGIPALHHPLLAISASPQLAALAEDLSSFDIIIAVSQHAVIFSDQFLQHRRICWPNNAIYLAVGQKTAHVFSKACQQSVDYPEISDSEHLLALSMLRDVAGKKVLILRGNGGRELIYSTLVERGATVRYQEAYCRHERPFAAAECVQKWQLAKVDSLVITSSEQLAFFIRQFETSHLPWVQQLTLLVPSQRIATLAHQLGFHRIVVTLSAANRDLVAALMPEKPTGTLSNDQQQEGHHHHHH
MCTSKPKFIPLPEQQSLCSLPNSGCCHVDVKVGRSKWEKRVAVLVQVEGEPDYKIYIYTKPLIGQIYPLNELKKREVKCEKDKVFLVNLASEKGEKITFKATGNNGSIWVAALMSGTFTSPIHETHGHTGGTGTDGTTSNIESDLKEKPDTNVYTGSREGYVPPPAKEGSGSGGKKKDMNNVAVKPDEKKKDSGRKLKKTVSKTITKLSVSESKKKTEKKIAATQKTQEFPIPKTVDEAHTNSEPDGDPLKLKKTITDGNELSLKGATAPTPQKAKLTTPTSTTPASSLTPSNALTPGNEDKKKMTTDSEEIELHEKKK
MAAAAAAAGGAALAVSTGLETATLQKLALRRKKVLGAEEMELYELAQAAGAAIDPDVFKILVDLLNLNVAPLAVFQMLKSMCAGQRLASDPQDSVPISLSTSTSETRGRNRGGPILGNVTISAERGSRERPIQRMPRQPSATRLPKVGGSGKSNSRSSP
TAPIAITCFTRGLDIRKEKADVLCPGGCPLEEFSVYGNIVYASVSSICGAAVHRGVISNSGGPVRVYSLPGRENYSSVDANGIQSQMLSRWSASFTVTLE
QLPTIYAITPTYSRPVQKAELTRLANTFRQVAQLHWILVEDAAARSELVSRFLARAGLPSTHLHVPTPRRYKRPGLPRATEQRNAGLAWLRQRHQHQRAQPGVLFFADDDNTYSLELFQEMRTTRKVSVWPVGLVGGRRYERPLVENGKVVGWYTGWRADRPFAIDMAGFAVSLQVILSNPKAVFKRRGSQPGMQESDFLKQITTVEELEPKANNCTKVLVWHTRTEKVNLANEPKYHLDTVKIEV
AEFFPEIPKVQFEGKESTNPLAFKFYDPEEIIDGKPLKDHLKFSVAFWHTFVNEGRDPFGDPTADRPWNRYTDPMDKAFARVDALFEFCEKLNIEYFCFHDRDIAPEGKTLRETNKILDKVVERIKERMKDSNVKLLWGTANLFSHPRYMHGAATTCSADVFAYAAAQVKKALEITKELGGEGYVFWGGREGYETLLNTDLGFELENLARFLRMAVDYAKRIGFTGQFLIEPKPKEPTKHQYDFDVATAYAFLKSHGLDEYFKFNIEANHATLAGHTFQHELRMARILGKLGSIDANQGDLLLGWDTDQFPTNVYDTTLAMYEVIKAGGFTKGGLNFDAKVRRASYKVEDLFIGHIAGMDTFALGFKVAYKLVKDGVLDKFIEEKYRSFREGIGRDIVEGKVDFEKLEEYIIDKETIELPSGKQEYLESLINSYIVKTILELR
IIGGHEAKPHSRPYMAYLQIMDEYSGSKKCGGFLIREDFVLTAAHCSGSKIQVTLGAHNIKEQEKMQQIIPVVKIIPHPAYNSKTISNDIMLLKLKSKAKRSSAVKPLNLPRRNVKVKPGDVCYVAGWGKLGPMGKYSDTLQEVELTVQEDQKCESYLKNYFDKANEICAGDPKIKRASFRGDSGGPLVCKKVAAGIVSYGQNDGSTPRAFTKVSTFLSWIKKTMKKS
MAQFIDRRLNGKNKSAVNRQRFLKRHKEQIKESVADAVNRRSITNTETGEDVSIPHKDINEPIFHQGKGGVRERVHPGNDQFITGDKIERPKGGGQGSGSGEGNASPDGEGQDEFVFQISKDEYLDILFEDLELPNLEKNQIAKITEWKTHRAGFQTAGIPSNISVIRSLQQSLARRTAMTAGKKRLLKELEDELTRIKNIEPAQQLEENRLKKEIEELRKKIENVPFIDTFDLRFKNYEKRPVPSSQAVMFCLMDVSGSMDQATKDIAKRFYVLLYLFLTRTYENVDVVFIRHHTQAKEVDEHEFFYSQETGGTIVSSALKLMDEIVKERYPVGQWNIYAAQASDGDNWADDSPRCRDLLVNKLLPNCQYYSYIEITRRSHQTLWHEYEKLTDEFPNFAMKNIRSVEDIFPVFRELFQKETALEHHHHHH

Soluble on expression in E. coli, not soluble:
MGSDKIHHHHHHMANALLQKWVERAERRALFWWQPKNGGVNMGDHLSKVIVSCVLALQDKTLLEKRDLRKKLIATGSVLHFAKDGDTVWGSGINGKIPAERNTFSTLDVRAVRGPKTRAFLLERGIAVPEVYGDPGLLTPMFFPADALGPVTKRPFAIVPHFNEPVEKYSAYAEHLVFPNVKPATFMSALLGAKFVISSSLHGLILAEAYGIPAVYLDWGNGEDRFKYDDYYHGTRRMQWHAGHSVEECMELGGNGSFDLERLQAGLLAAFPYDLW
QRQPGHFCRSVLLAPVGAFLWQRSLPALMSPLPIRKTIHWLLANKPKLFAHKFSRHAWPDSHYRRMGAGYARCRAFIPYWDMVRADTALPLLEWVQDPIELVWGDQDKVLGIDQAAAWSAILARADLTISLKPGWGHYPWIDSPAEFAQWLES
MPKDKKKDEVTEVEHVDRNISSFSQISHLIDAEIITRLTLSHNKLTSVPPNIADLVSLQSLNLWNNQIEDLPPSISSLPKLRILNVGMNKLSILPRGFGSFPELEILDLTYNNLSERSLPGNFFFMQTLRALYLGDNDFEMLPGDVENLTNLQILVLRENDLLTLPKELGKLTRLRELHIQGNRLAMIPPELGNLELVGSKQVLRLEHNPFIPRIEEQFEANGAAGVWAHIRTDDYRYFFGRQEPSSTPVPPKRNKEKKVSRKGIQQA
MIAHSVDDPFYYLHNFRQVVLWVEQRYQDLLDDQELAFIRAFSQLQAPAQALMVRMVMRKGELFRSDRLDYAEIGDTALALQPLLALGWVREPEQLDLEQLFALLRKEELARCFARQLNRPRAAKHELLAQLQPLALAARSLVEWFPDSDVRILQWCLQPLCDRIRLLFFGNLYQDWSDFVLADLGLLRYEQVPFSPDSRALQQRDDVDLAMALHHCAERLEQGGDPLPILATLQGLHSSNPWLARRHARLQFAVGQQCERLGEWDLATAVYAQCNHPQARIRQVRVLERSEQWHQAHARALQLAAAPANALEEQALQRMLPRLARKLGGPPQRRQRTTPLELIELELPRGDAALGVEEAVRQHLMQEGGQAHYVENTLFNSLFGLLCWEAIFAPVPGAFFNPFQAAPQDLHDSDFQQRRSALFERCLGRLDEGSHRQAILDCYVAKQGLQSPFVSWSMLSEELLEQALACLPAAALKQCFLRLLQDIRSNRAGMPDLIQFWPEQGRYRMVEVKGPGDRLQDNQLRWLAFCRQHGLPVAVCHVRWSET
MKTFGLLGGLAYPSTAEYYLKINRQVHATLGKHHSAPLWIHSFDFEPIAQAQASGSWTILEEKLLQAALELERLGCQGLAIASNTMHLLAPALEGALSIPLVHIADSVGEESSLKGYKKLALLGTLFTMEKDFYASRLQERFDLEVITPAKEERNLVHECIYRELVNNIFTEDSRRDFIQIIHGLKERGAEAVILGCTEIPLLLEGASSPLPLLDTMELHVGSIVQSILEI
MSDDESIFVPDENSAQVSAETTVKCYRTDSASSQKVINNLEKFVLNQSLDKSYKKIASDGIASSKRTLESLLARNGGHQNLLNEEVNKLNNKNYTLDADGRVCLVKNSSNDTSRHQELILLQKDTHELRCLREYLMLALEAIMHNHRQMMVKHVQNVRERPRQVSQAAIDNAIVSSAFGLFIEAFYSFLFQEKANTRIIDEFAQMTLFVDQSIAREEIRSENRRKLKKTIEIETFLMRMMLEMEDIREANVKDLVSLWRSHQRSAKTQPTNNNAAGDSTN
MREDHSPRRNNTIENTLTELLPNRLYFGCFPNPDAIDKSDKSVKKTCFININNKFHYEPFYEDFGPWNLSVLYRLCVQVGKLLEVEEKRSRRVVLFCQDDGTGQYDKIRVNTAYVLGAYLIIYQGFSADDAYLKVSSGETVKFVGFRDASMGSPQYLLHLHDVLRGIEKALKFGWLDFSDFDYEEYEFYERVENGDFNWIIPGKILSFCGPHNESREENGYPYHAPDVYFDYFRENKVSTIVRLNAKNYDASKFTKAGFDHVDLFFIDGSTPSDEIMLKFIKVVDNTKGGVAVHCKAGLGRTGTLIACWMMKEYGLTAGECMGWLRVCRPGSVIGPQQPYLIEKQKFCWSLSQSNGVHLTQNKEEKRNVRRLVNQVDDINLGEERISPKSRENTRPNILRRRVQVQNGRSTAPVTIAPAGTSESRRSTKPSRVVDETALDDQGRSQGDRLLQLKAKHQHESETTSPNSSSSRRFVKSSTPQMTVPSQAYLNRNREPIIVTPSKNGTSSGTSSRQLKTTPNGNVAYRTRNSSGNTTSTLTRTPASAVFPSMASRRSETTRYLSPTTPIKPMSPSYTDGTSPRYKARLRSENPIGSTTSTPFSLQPQFGLVRVPPDSPHSIMAHRPPPTTSSRAPLSPHNYSTTQGYSTSSRGLYGDKKPLARGSVSTSTLPSMYMTRKMSENGAVEVEITTSYVEDRKAAEQIDPSSTPPEPKRRFVLVSRKIVSKEVPSAGPTCSNDPRLNYASTRKLPIKISHRLCQICRTIKPIADISMMTDENEKLFILLAAIFQRKLFVEECTRIYKQPAVYTCSSHYSEASTAILNMFGVGGALRIFRARPRKVSQVEKFASHLMGKQFEEDKLIHSAYMFVLNHPEAGAVTGPIIKEEDIPFEETVECSSTTAVNGILPKCFRQPRKQKLEEDSCSSSILRIIKKTTPSLPNRSYTMINQNMEHPLQCCYCLEVYEKRYMTQVPKTEQRIARWVAILGEQFRIRLRMKPANYMCRKHFPQADFSSRGRLLKTAVPNVVSQEKVLAFKLEGNTFVEVKEDNTNIKMEKGTDSEIDIEN
MSLSLREVSQLLCQLKVLDQKITKVFEEQVGLSLTRYELLMILKERQPCLQTEIQEHLKIDSGAVTRHLKILEEKQYVTRQRNPENNREVLVHLTEKAQQELQQCTAKQQTVTEIIPSTFTKDDCRQLKELLTKLDQSITTKEV
MRDEKRKAIPAIGFYPQEEISTGTTLIAMEYNGGVVVGTDSRTSAGSFITSRATNKITPITDNMVVCRSGSAADTQAIADIAKYHIDVYTMTENKPVTIYRSSQIFRQFLYNYREQLSASVLVAGWDEELGGQVYAIPIGGFVSRQRSTASGSGSTFVQGFLDSQWRPNLTLEECKAIVKQAVGLATFRDGSSGGVVRLAVINKAGSQFELFRPDKPGFPFVQTPTPHLSFPPHIEQVL
